Data on 2 molecules can be found in patent publication US20260328755 (published 2026).

In the assay the target is T1, TL1A (TNFSF15) (human, UniProt O95150).
T1 chain: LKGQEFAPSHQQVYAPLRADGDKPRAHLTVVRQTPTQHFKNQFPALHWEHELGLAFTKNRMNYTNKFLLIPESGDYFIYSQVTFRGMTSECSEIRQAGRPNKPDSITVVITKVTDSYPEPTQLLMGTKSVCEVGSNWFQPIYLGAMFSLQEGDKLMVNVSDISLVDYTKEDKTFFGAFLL
In words: ELISA.

B1: heavy chain 512 antibody (S228P, L235E) (antibody)
chain 1: not shown
chain 2: EIVLTQSPGTLSLSPGERATLSCRASSSVSYMYWYQQKPGQAPRPLIYATSNLASGIPDRFSGSGSGTDFTLTISRLEPEDFAVYYCQQWEGNPRTFGGGTKLEIKRTVAAPSVFIFPPSDEQLKSGTASVVCLLNNFYPREAKVQWKVDNALQSGNSQESVTEQDSKDSTYSLSSTLTLSKADYEKHKVYACEVTHQGLSSPVTKSFNRGEC
For the molecule B1, the concentration for a half-maximal effect (EC50) came to 0.324 nM.

B2: heavy chain 513 antibody (S228P, F234A, L235A) (antibody)
chain 1: not shown
chain 2: B1 chain 2
The molecule B2 had a concentration giving a half-maximal response (EC50) of 0.252 nM.

Broadly, the EC50 is the midpoint of the concentration-response curve. Read a low EC50 as a more potent agent.
